# Where two headings read alike, the source gives them in different places.
# Columns and labels:
# [1] = tested on: 17 kDa substrate containing the target cleavage site Glu-Asn-Leu-Tyr-Phe-Gln-Gly (SEQ ID NO: 5)
# [2] = target: 17 kDa substrate containing the target cleavage site Glu-Asn-Leu-Tyr-Phe-Gln-Gly (SEQ ID NO: 5); remark: listed apart in the source
molecule,measurement,setting,value
"TPSN (mutant 27 kDa NIa proteinase with Ser219 to Asn mutation, C-terminal His6 tag)",specific activity for substrate cleavage,[1],TPWT and TPSN have similar activity to each other and to the commercially available proteinase at all substrate concentrations tested
"TPWT (wild type 27 kDa NIa proteinase of tobacco etch virus, C-terminal His6 tag) (protein) MAESGESLFKGPRDYNPISSTICHLTNESDGHTTSLYGIGFGPFIITNKHLFRRNNGTLLVQSLHGVFKVKNTTTLQQHLIDGRDMIIIRMPKDFPPFPQKLKFREPQREERICLVTTNFQTKSMSSMVSDTSCTFPSSDGIFWKHWIQTKDGQCGSPLVSTRDGFIVGIHSASNFTNTNNYFTSVPKNFMELLTNQEAQQWVSGWRLNADSVLWGGHKVFMSKPEEPFQPVKEATQLMNELVYSQLHHHHHH",specific activity for substrate cleavage,[2],TPWT and TPSN have similar activity to each other and to the commercially available proteinase at all substrate concentrations tested
commercially available 27 kDa NIa proteinase (GibcoBRL) (protein) GESLFKGPRDYNPISSTICHLTNESDGHTTSLYGIGFGPFIITNKHLFRRNNGTLLVQSLHGVFKVKNTTTLQQHLIDGRDMIIIRMPKDFPPFPQKLKFREPQREERICLVTTNFQTKSMSSMVSDTSCTFPSSDGIFWKHWIQTKDGQCGSPLVSTRDGFIVGIHSASNFTNTNNYFTSVPKNFMELLTNQEAQQWVSGWRLNADSVLWGGHKVFMSKPEEPFQPVKEATQLMNELVYSQ,specific activity for substrate cleavage,[2],TPWT and TPSN have similar activity to each other and to the commercially available proteinase at all substrate concentrations tested
same,substrate cleavage (SDS-PAGE),[2],produces a ˜15 kDa peptide when cleaved with commercially available 27 kDa NIa proteinase (GibcoBRL)
